pKd: −log10 of the molar value.
What follows are substances tested against Ankyrin-G ANK repeats 8-24 (assay: ITC; E-cadherin proteins in the syringe (e.g. 200 μM Trx-E-cadherin) titrated into AnkG in the cell (e.g. 20 μM Trx-AnkG R1-24); 25 °C; 50 mM Tris, 100 mM NaCl, 1 mM EDTA, 1 mM DTT, pH 7.8; one-site binding model).
E-cadherin 751-775 (site-1), sequence (P09803 751-775): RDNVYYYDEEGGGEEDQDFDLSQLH
E-cadherin C-terminal domain (residues 734-884), sequence (P09803 734-884): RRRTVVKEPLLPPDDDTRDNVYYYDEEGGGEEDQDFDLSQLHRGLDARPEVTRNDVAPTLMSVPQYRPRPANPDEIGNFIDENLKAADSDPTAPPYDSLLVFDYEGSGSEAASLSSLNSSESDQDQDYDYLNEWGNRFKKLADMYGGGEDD
E-cadherin 828-869 (containing both site-2 and site-3), sequence (P09803 828-869): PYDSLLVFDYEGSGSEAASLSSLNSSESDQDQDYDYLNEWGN
“E-cadherin C-terminal domain (residues 734-884) (from UniProt P09803 734-884) (domain or fragment)” gave a pKd of 5.82.
Substance “E-cadherin 828-869 (containing both site-2 and site-3) (from UniProt P09803 828-869) (domain or fragment)” has a pKd of 5.60.
For “E-cadherin 751-775 (site-1) (from UniProt P09803 751-775) (domain or fragment)”, the pKd was 5.89.
